From patent publication US20180177842A1 (CANIMGUIDE THERAPEUTICS, published 2018) come the findings set out here.

The labels stand for the following.
T1: P3028 (VFDEFKPLVEEPQNLIK, SEQ ID NO: 185), His-tagged (human)
T1 construct: Synthetic fragment of human serum albumin (positions 397-413); used in solution as His-tagged peptide PGE73; also called PGE73; not shown: His-tag
T1 peptide: VFDEFKPLVEEPQNLIK

In the assay the target is T1, P3028 (VFDEFKPLVEEPQNLIK, SEQ ID NO: …). Put plainly: PEPSCAN ELISA; peptide on chip, His-P3028 added.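 Also: peroxidase color development with ABTS and H2O2 substrate, OD405 imaged by CCD camera with image processing and taken as raw values.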
Experimental: After washing, the peroxidase substrate 2,2′-azine-di-3-ethylbenzthiazoline sulfonate (ABTS) and 2 μL of 3% H2O2 were added. The binding capacity of the mAb was measured as a color development at 405 nm (optical density, OD405). The color development was quantified with a charge-coupled device (CCD)—camera and an image processing system.
The OD405-values obtained by a CCD-camera was considered as raw data values (“rampo values,” “rampo units,” or “rampo scores”). […] First the CCD-camera made a picture of the card before peroxidase coloring and then again a picture after the peroxidase coloring. […] These values were copied into an excel file and labeled as a raw data file. […] Sometimes a well can contain an air-bubble resulting in a false-positive value. If manual inspection of the cards detect an air-bubble the value are set to 0 for well.
Consider KKLDTFFVKRSLFTER [KKLDTFFVKRSLFTER (SEQ ID NO: 340)], for which the “RAMPO Score” value is 439 rampo units. For KKLDTFGVKLSLFTER [KKLDTFGVKLSLFTER (SEQ ID NO: 96)] the value was 347 rampo units. With KKLDTFLVKLSLFTER [KKLDTFLVKLSLFTER (SEQ ID NO: 320)] the figure was 517 rampo units; with KKLDTFTVKLSLFTER [KKLDTFTVKLSLFTER (SEQ ID NO: 324)], 517 rampo units; with KKLTTFFVKLSLFTER [KKLTTFFVKLSLFTER (SEQ ID NO: 413)], 405 rampo units.

Take KKLDTFRVKLSLFTER [KKLDTFRVKLSLFTER (SEQ ID NO: 432)]: the “RAMPO Score” value came out at 369 rampo units. KKLDTIFVKLSLFTER [KKLDTIFVKLSLFTER (SEQ ID NO: 314)]: the “RAMPO Score” value turned out to be 466 rampo units.

As to KKLDTFPVKLSLFTER [KKLDTFPVKLSLFTER (SEQ ID NO: 437)], the “RAMPO Score” value is 356 rampo units. On to KKLDTFVVKLSLFTER [KKLDTFVVKLSLFTER (SEQ ID NO: 325)], for which the “RAMPO Score” value was 527 rampo units. With KKLDTFSVKLSLFTER [KKLDTFSVKLSLFTER (SEQ ID NO: 323)] the figure was 700 rampo units. With KKLDTVFVKLSLFTER [KKLDTVFVKLSLFTER (SEQ ID NO: 319)] the figure was 547 rampo units; with KKLDTLFVKLSLFTER [KKLDTLFVKLSLFTER (SEQ ID NO: 411)], 408 rampo units.

With KKLWTFFVKLSLFTER [KKLWTFFVKLSLFTER (SEQ ID NO: 302)], the “RAMPO Score” value was 443 rampo units. For KKLDTGFVKLSLFTER [KKLDTGFVKLSLFTER (SEQ ID NO: 446)] the value was 347 rampo units; for KKLDTPFVKLSLFTER [KKLDTPFVKLSLFTER (SEQ ID NO: 317)], 497 rampo units; for KKLDTFIVKLSLFTER [KKLDTFIVKLSLFTER (SEQ ID NO: 397)], 446 rampo units. Turning to KKLDTWFVKLSLFTER [KKLDTWFVKLSLFTER (SEQ ID NO: 444)], the “RAMPO Score” value came to 348 rampo units.

On to KKLLTFFVKLSLFTER [KKLLTFFVKLSLFTER (SEQ ID NO: 491)], for which the “RAMPO Score” value came to 303 rampo units. For KKLRTFFVKLSLFTER [KKLRTFFVKLSLFTER (SEQ ID NO: 480)] the value was 317 rampo units; for KKLDTFFVKTSLFTER [KKLDTFFVKTSLFTER (SEQ ID NO: 342)], 399 rampo units; for KKLDTFFVKVSLFTER [KKLDTFFVKVSLFTER (SEQ ID NO: 343)], 658 rampo units. Take KKLDWFFVKLSLFTER [KKLDWFFVKLSLFTER (SEQ ID NO: 311)]: the “RAMPO Score” value turned out to be 418 rampo units. Turning to KKLDTFFVVLSLFTER [KKLDTFFVVLSLFTER (SEQ ID NO: 523)], the “RAMPO Score” value stood at 248 rampo units. With KKLDTFMVKLSLFTER [KKLDTFMVKLSLFTER (SEQ ID NO: 321)], the “RAMPO Score” value worked out at 712 rampo units. With KKLITFFVKLSLFTER [KKLITFFVKLSLFTER (SEQ ID NO: 300)] the figure was 430 rampo units; with KKLQTFFVKLSLFTER [KKLQTFFVKLSLFTER (SEQ ID NO: 448)], 345 rampo units. For KKLDVFFVKLSLFTER [KKLDVFFVKLSLFTER (SEQ ID NO: 429)] the value was 374 rampo units; for KKLDTKFVKLSLFTER [KKLDTKFVKLSLFTER (SEQ ID NO: 460)], 337 rampo units; for KKLMTFFVKLSLFTER [KKLMTFFVKLSLFTER (SEQ ID NO: 423)], 384 rampo units. In the case of KKLDTSFVKLSLFTER [KKLDTSFVKLSLFTER (SEQ ID NO: 401)], the “RAMPO Score” value is 432 rampo units.

For KKLDTHFVKLSLFTER [KKLDTHFVKLSLFTER (SEQ ID NO: 466)], the “RAMPO Score” value was determined as 332 rampo units. As for KKLDTFQVKLSLFTER [KKLDTFQVKLSLFTER (SEQ ID NO: 322)], the “RAMPO Score” value is 511 rampo units. For KKNDTFFVKLSLFTER [KKNDTFFVKLSLFTER (SEQ ID NO: 292)] the value was 374 rampo units; for KKLDTFFVKWSLFTER [KKLDTFFVKWSLFTER (SEQ ID NO: 482)], 316 rampo units; for KKLDTFFVKYSLFTER [KKLDTFFVKYSLFTER (SEQ ID NO: 344)], 382 rampo units. With KKPDTFFVKLSLFTER [KKPDTFFVKLSLFTER (SEQ ID NO: 436)] the figure was 361 rampo units; with KKLDTNFVKLSLFTER [KKLDTNFVKLSLFTER (SEQ ID NO: 316)], 446 rampo units; with KKLDTFFVRLSLFTER [KKLDTFFVRLSLFTER (SEQ ID NO: 331)], 374 rampo units. On to KKLSTFFVKLSLFTER [KKLSTFFVKLSLFTER (SEQ ID NO: 451)], for which the “RAMPO Score” value stood at 344 rampo units. As for KKLDTFFVSLSLFTER [KKLDTFFVSLSLFTER (SEQ ID NO: 511)], the “RAMPO Score” value amounted to 274 rampo units. For KKLDTFFVKSSLFTER [KKLDTFFVKSSLFTER (SEQ ID NO: 341)] the value was 351 rampo units; for KKLDTRFVKLSLFTER [KKLDTRFVKLSLFTER (SEQ ID NO: 486)], 309 rampo units; for KKLDTYFVKLSLFTER [KKLDTYFVKLSLFTER (SEQ ID NO: 434)], 364 rampo units. As to KKLDTFNVKLSLFTER [KKLDTFNVKLSLFTER (SEQ ID NO: 443)], the “RAMPO Score” value was found to be 348 rampo units. In the case of KKLYTFFVKLSLFTER [KKLYTFFVKLSLFTER (SEQ ID NO: 303)], the “RAMPO Score” value came out at 422 rampo units.

As for KKLNTFFVKLSLFTER [KKLNTFFVKLSLFTER (SEQ ID NO: 498)], the “RAMPO Score” value is 296 rampo units. As for KKLKTFFVKLSLFTER [KKLKTFFVKLSLFTER (SEQ ID NO: 512)], the “RAMPO Score” value stood at 274 rampo units. As for KKLDTFHVKLSLFTER [KKLDTFHVKLSLFTER (SEQ ID NO: 433)], the “RAMPO Score” value worked out at 364 rampo units. Take KKLDTMFVKLSLFTER [KKLDTMFVKLSLFTER (SEQ ID NO: 315)]: the “RAMPO Score” value stood at 467 rampo units. With KKLDYFFVKLSLFTER [KKLDYFFVKLSLFTER (SEQ ID NO: 312)] the figure was 425 rampo units.

As for KKLETFFVKLSLFTER [KKLETFFVKLSLFTER (SEQ ID NO: 299)], the “RAMPO Score” value was found to be 417 rampo units.

KKLDTQFVKLSLFTER [KKLDTQFVKLSLFTER (SEQ ID NO: 410)]: the “RAMPO Score” value was found to be 410 rampo units.

For KKMDTFFVKLSLFTER [KKMDTFFVKLSLFTER (SEQ ID NO: 291)], the “RAMPO Score” value is 460 rampo units. Take KKLHTFFVKLSLFTER [KKLHTFFVKLSLFTER (SEQ ID NO: 479)]: the “RAMPO Score” value worked out at 317 rampo units. Regarding KKLDTFFVWLSLFTER [KKLDTFFVWLSLFTER (SEQ ID NO: 526)], the “RAMPO Score” value is 245 rampo units. In the case of KKLDTFFVTLSLFTER [KKLDTFFVTLSLFTER (SEQ ID NO: 445)], the “RAMPO Score” value turned out to be 347 rampo units. For KKLDTFWVKLSLFTER [KKLDTFWVKLSLFTER (SEQ ID NO: 425)] the value was 380 rampo units; for KKLDTFYVKLSLFTER [KKLDTFYVKLSLFTER (SEQ ID NO: 463)], 334 rampo units. With KKLDTFFVMLSLFTER [KKLDTFFVMLSLFTER (SEQ ID NO: 509)] the figure was 283 rampo units.

Consider KKLDTFFVNLSLFTER (also called 31136) [KKLDTFFVNLSLFTER (SEQ ID NO: 518)], for which the “RAMPO Score” value came to 256 rampo units. Turning to KKLDTFFVQLSLFTER [KKLDTFFVQLSLFTER (SEQ ID NO: 469)], the “RAMPO Score” value is 330 rampo units. For KKLFTFFVKLSLFTER [KKLFTFFVKLSLFTER (SEQ ID NO: 426)] the value was 380 rampo units; for KKLPTFFVKLSLFTER [KKLPTFFVKLSLFTER (SEQ ID NO: 435)], 364 rampo units. With KKLDTTFVKLSLFTER [KKLDTTFVKLSLFTER (SEQ ID NO: 318)] the figure was 481 rampo units; with KKLGTFFVKLSLFTER [KKLGTFFVKLSLFTER (SEQ ID NO: 515)], 264 rampo units.
